Twelve molecules from patent US20060270831A1 (AFFYMAX, published 2006) can be followed below.

The target in assay [1] is T1, human erythropoietin receptor on Ba/F3-huEPOR cells (human, UniProt P19235 25-508).
T1 sequence (looked up): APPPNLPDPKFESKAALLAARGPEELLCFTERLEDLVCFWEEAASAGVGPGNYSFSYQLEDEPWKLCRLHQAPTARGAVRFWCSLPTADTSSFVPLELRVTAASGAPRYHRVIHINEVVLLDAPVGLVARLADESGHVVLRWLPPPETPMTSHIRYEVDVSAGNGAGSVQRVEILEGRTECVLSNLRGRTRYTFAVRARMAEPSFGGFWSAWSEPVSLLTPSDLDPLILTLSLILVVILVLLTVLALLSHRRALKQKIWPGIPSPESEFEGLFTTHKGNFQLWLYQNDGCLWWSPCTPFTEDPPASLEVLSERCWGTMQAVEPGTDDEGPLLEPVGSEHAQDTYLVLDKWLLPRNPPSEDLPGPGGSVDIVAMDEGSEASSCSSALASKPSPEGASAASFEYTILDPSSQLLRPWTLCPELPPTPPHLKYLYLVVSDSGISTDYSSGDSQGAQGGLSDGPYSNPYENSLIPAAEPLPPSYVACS
Put plainly: cell-based or functional assay.

The target of assay [2] is T1, human erythropoietin receptor on …. Put plainly: cell-based or functional assay. This is another data set of the same source.

Bridge positions count the residues as written; N and C are the ends. Square brackets hold non-standard residues; d marks the D form. Ends that are not written are not given here. I, II: the chains in the order shown. 1Nal = N[C@@H](Cc1cccc2ccccc12)C(=O)O; PEG = not defined here

B1: Peptide dimer of Example 7, Code No. 17286 (R1 = R2 = GGTYSCHFGPLTBVCRPQGG, n1 = 1, n2 = 0, lysine linker, intramolecular disulfide in each chain) (peptide)
peptide 1: GGTYSCHFGPLT[1Nal]VCRPQGG
peptide 2: GGTYSCHFGPLT[1Nal]VCRPQGG
modifications: disulfide I:6-I:15, II:6-II:15; not fully specified (C-terminus); also: dimer: C-termini joined by lysine linker, R1 through βAla, R2 directly, which chain is R1 not given here
B1: the “EC50 (nM), bioassay (Ba/F3-huEPOR cell proliferation)” value (“EC50 (nM), bioassay” for short) in assay [1] turned out to be 0.4 nM.

B2: Peptide dimer of Example 2, Code No. 20528 (R1 = R2 = GGTYSCHFGPLTBVCRPQGG, n1 = 1, n2 = 0, lysine linker, free cysteine thiols) (peptide)
peptide 1: GGTYSCHFGPLT[1Nal]VCRPQGG
peptide 2: GGTYSCHFGPLT[1Nal]VCRPQGG
modifications: cysteine pairing not given here; also: dimer: C-termini joined through lysine linker, one chain (R1) via a beta-alanine, the other (R2) directly
For B2, in assay [1], the “EC50 (nM), bioassay” value was 6 nM.

B3: Peptide dimer of Example 1, Code No. 17218 (R1 = R2 = GGTYSCHFGPLTBVCRPQGG, n1 = 0, n2 = 0, lysine linker, free cysteine thiols) (peptide)
peptide: GGTYSCHFGPLT[1Nal]VCRPQGG
modifications: cysteine pairing not given here; also: dimer: two identical chains joined at C-termini through a lysine amide linker
In the case of B3, the “EC50 (nM), bioassay” value in assay [1] was determined as 6 nM.

B4: Peptide dimer of Example 4, Code No. 20532 (R1 = R2 = GGTYSCHFGPLTBVCRPQ, n1 = 0, n2 = 0, lysine linker, free cysteine thiols) (peptide)
peptide: GGTYSCHFGPLT[1Nal]VCRPQ
modifications: cysteine pairing not given here; also: homodimer: C-termini joined through a lysine linker
As to B4, the “EC50 (nM), bioassay” value in assay [1] worked out at 50 nM.

B5: Peptide dimer of Example 6, Code No. 19957 (R1 = R2 = GGTYSCHFGPLTBVCRPQGG, n1 = 0, n2 = 0, lysine linker, intramolecular disulfide in each chain) (peptide)
peptide: GGTYSCHFGPLT[1Nal]VCRPQGG
modifications: disulfide 6-15; also: dimer: C-termini of both chains bound to lysine (amide) linker
As for B5, the “EC50 (nM), bioassay” value in assay [1] came out at 0.5 nM.

B6: Peptide dimer of Example 10, Code No. 17644 (R1 = R2 = GGTYSCHFGPLTBVCRPQGG, both N-termini acetylated, n1 = 1, n2 = 0, lysine linker) (peptide)
peptide 1: Ac-GGTYSCHFGPLT[1Nal]VCRPQGG
peptide 2: Ac-GGTYSCHFGPLT[1Nal]VCRPQGG
modifications: cysteine pairing not given here; also: dimer: C-termini joined through lysine linker, one chain (R1) via a beta-alanine, the other (R2) directly
B6: the “EC50 (nM), bioassay” value in assay [1] was 5 nM.

B7: Peptide dimer of Example 5, Code No. 20531 (R1 = R2 = GTYSCHFGPLTBVCRPQ, n1 = 0, n2 = 0, lysine linker, free cysteine thiols) (peptide)
peptide: GTYSCHFGPLT[1Nal]VCRPQ
modifications: cysteine pairing not given here; also: dimer: C-termini of both chains bound to lysine linker
As to B7, the “EC50 (nM), bioassay” value in assay [1] is 100 nM.

B8: Peptide dimer of Example 12, Code No. 20952 (R1 = R2 = GGTYSCHFGPLTBVCRPQGGK, both N-termini acetylated, n1 = 0, n2 = 0, linker =O) (peptide)
peptide: Ac-GGTYSCHFGPLT[1Nal]VCRPQGGK
modifications: not fully specified; also: cysteine state not given here
For the molecule B8, in assay [1], the “EC50 (nM), bioassay” value is 2 nM.

B9: Peptide dimer of Example 8, Code No. 19261 (R1 = R2 = GGTYSCHFGPLTBVCRPQGG, n1 = 1, n2 = 1, lysine linker, intramolecular disulfide in each chain) (peptide)
peptide: GGTYSCHFGPLT[1Nal]VCRPQGG
modifications: disulfide 6-15; not fully specified (C-terminus); also: dimer: each chain joined through βAla to lysine linker
For the molecule B9, the “EC50 (nM), bioassay” value in assay [1] was found to be 0.3 nM.

B10: monomeric compound having the sequence GGTYSCHFGPLTBVCRPQGG (SEQ ID NO: 7) (peptide)
peptide: GGTYSCHFGPLT[1Nal]VCRPQGG
modifications: cysteine pairing not given here
Regarding B10, the “EC50, bioassay (Ba/F3-huEPOR cell proliferation)” value in assay [2] turned out to be 200 nM.

B11: Peptide dimer of Example 3, Code No. 20526 (R1 = R2 = GGTYSCHFGPLTBVCRPQGG, n1 = 1, n2 = 1, lysine linker, free cysteine thiols) (peptide)
peptide: GGTYSCHFGPLT[1Nal]VCRPQGG
modifications: not fully specified (C-terminus); cysteine pairing not given here; also: homodimer: C-termini joined via beta-alanine to a lysine linker
Regarding B11, the “EC50 (nM), bioassay” value in assay [1] stood at 5 nM.

B12: Peptide dimer of Example 11, Code No. 17762 (R1 = R2 = GGTYSCHFGPLTBVCRPQGG, both N-termini PEGylated, n1 = 1, n2 = 1, lysine linker) (peptide)
peptide: {PEG}-GGTYSCHFGPLT[1Nal]VCRPQGG
modifications: not fully specified (C-terminus); cysteine pairing not given here; reading uncertain; also: homodimer: C-termini joined via beta-alanine to a lysine linker, PEG size not given here
For the molecule B12, the “EC50 (nM), bioassay” value in assay [1] was found to be 0.4 nM.
